Target: NtermRGS2-GFP-CIBN (R2helix-CIBN component of opto-RGS2, GFP-tagged)
Test: light-induced membrane translocation

τoff (time constant of dark reversion from the membrane): 396 s
τon (time constant of light-induced membrane translocation): 19.7 s
Substance: CRY2-mCherry-(GGGGS)3-RGS2box (CRY2-R2box component of opto-RGS2)

Reference: article PMC6311707
